Paper PMC8550936 (2021)

Molecular target: Venezuelan equine encephalitis virus (VEEV) virus-like particles (Venezuelan equine encephalitis virus, …, UniProt P09592 813-1254)
Assay: SPR

B1: LDLRAD3(D1), cleaved monomeric ectodomain of mouse low-density lipoprotein receptor class A domain-containing 3, domain 1 (domain or fragment)
chain: not shown
Kd: 58.2 nM
